{"source": "patent US20190024066A1", "key": {"[1]": {"target": "mouse neonatal Fc receptor (mFcRn) (mouse) (UniProt Q61559)", "sequence (Q61559 22-297 limits assumed)": "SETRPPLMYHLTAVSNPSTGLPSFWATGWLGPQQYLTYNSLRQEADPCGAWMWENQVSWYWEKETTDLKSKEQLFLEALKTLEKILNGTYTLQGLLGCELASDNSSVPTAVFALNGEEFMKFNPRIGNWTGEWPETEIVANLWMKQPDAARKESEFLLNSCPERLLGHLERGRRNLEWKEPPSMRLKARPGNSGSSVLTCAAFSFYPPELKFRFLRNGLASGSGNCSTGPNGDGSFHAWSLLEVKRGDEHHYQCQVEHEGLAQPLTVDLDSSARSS", "assay": "SPR"}, "CD20 on Raji cells [2]": {"target": "CD20 on Raji cells (UniProt P11836)", "sequence (P11836 whole entry)": "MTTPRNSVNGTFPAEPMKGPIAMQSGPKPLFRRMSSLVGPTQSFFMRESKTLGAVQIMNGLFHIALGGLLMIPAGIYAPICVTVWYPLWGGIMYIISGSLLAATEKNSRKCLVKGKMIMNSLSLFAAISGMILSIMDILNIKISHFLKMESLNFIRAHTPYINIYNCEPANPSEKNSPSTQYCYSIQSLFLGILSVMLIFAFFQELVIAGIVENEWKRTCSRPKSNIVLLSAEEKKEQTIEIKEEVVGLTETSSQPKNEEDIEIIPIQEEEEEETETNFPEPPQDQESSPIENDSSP", "assay": "flow cytometry, Raji cells; […]"}, "CD20 on Raji cells [3]": {"target": "CD20 on Raji cells (UniProt P11836)", "assay": "flow cytometry, Raji cells; 10 µg/mL"}, "CD20 on Raji cells [4]": {"target": "CD20 on Raji cells (UniProt P11836)", "assay": "flow cytometry, Raji cells; 2.5 µg/mL"}, "CD20 on Raji cells [5]": {"target": "CD20 on Raji cells (UniProt P11836)", "assay": "flow cytometry, Raji cells; 0.625 µg/mL"}, "CD20 on Raji cells [6]": {"target": "CD20 on Raji cells (UniProt P11836)", "assay": "flow cytometry, Raji cells; 0.00061 µg/mL"}, "CD20 on Raji cells [7]": {"target": "CD20 on Raji cells (UniProt P11836)", "assay": "flow cytometry, Raji cells; 0.15625 µg/mL"}, "CD20 on Raji cells [8]": {"target": "CD20 on Raji cells (UniProt P11836)", "assay": "flow cytometry, Raji cells; 0.009766 µg/mL"}, "CD20 on Raji cells [9]": {"target": "CD20 on Raji cells (UniProt P11836)", "assay": "flow cytometry, Raji cells; 0.039063 µg/mL"}, "[10]": {"target": "FcγRIIIaV with a hexahistidine tag (R&D Systems) (human) (UniProt P08637)", "sequence (P08637 17-208 F176V limits assumed)": "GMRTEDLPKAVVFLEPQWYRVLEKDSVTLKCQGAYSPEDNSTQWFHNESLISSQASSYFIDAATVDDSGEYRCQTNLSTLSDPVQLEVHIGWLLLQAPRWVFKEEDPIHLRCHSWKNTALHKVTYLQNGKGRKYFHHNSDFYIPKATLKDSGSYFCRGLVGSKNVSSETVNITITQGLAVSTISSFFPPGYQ", "assay": "BLI, His-FcγRIIIaV on anti-penta-His sensor, steady-state model"}, "[11]": {"target": "human neonatal Fc receptor (hFcRn), biotinylated (human) (UniProt P55899)", "sequence (P55899 24-297 limits assumed)": "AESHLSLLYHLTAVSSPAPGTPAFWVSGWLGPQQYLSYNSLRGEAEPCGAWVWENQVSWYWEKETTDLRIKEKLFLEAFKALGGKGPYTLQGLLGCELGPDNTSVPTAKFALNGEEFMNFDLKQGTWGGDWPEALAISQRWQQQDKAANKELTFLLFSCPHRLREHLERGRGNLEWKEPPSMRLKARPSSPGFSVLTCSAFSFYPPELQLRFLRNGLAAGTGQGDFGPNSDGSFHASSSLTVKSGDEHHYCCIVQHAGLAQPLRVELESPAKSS", "assay": "SPR, biotinylated hFcRn on streptavidin chip, IgG injected, pH 6.0"}, "[12]": {"target": "His-tagged FcγRIIb (R&D Systems) (human) (UniProt P31994)", "sequence (P31994 46-217 limits assumed)": "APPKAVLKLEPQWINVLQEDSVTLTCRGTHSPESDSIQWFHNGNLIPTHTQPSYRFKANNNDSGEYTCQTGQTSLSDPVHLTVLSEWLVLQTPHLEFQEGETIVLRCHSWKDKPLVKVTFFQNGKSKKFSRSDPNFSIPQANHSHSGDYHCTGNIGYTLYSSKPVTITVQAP", "assay": "competition ELISA, His-FcγRIIb, competitor coated HZ 15C1; 1000 µg/ml"}, "[13]": {"target": "His-tagged FcγRIIb (R&D Systems) (human) (UniProt P31994)", "assay": "competition ELISA, His-FcγRIIb, competitor coated HZ 15C1; 3000 µg/ml"}, "[14]": {"target": "His-tagged FcγRIIb (R&D Systems) (human) (UniProt P31994)", "assay": "competition ELISA, His-FcγRIIb, competitor coated HZ 15C1; 4.12 µg/ml"}, "[15]": {"target": "His-tagged FcγRIIb (R&D Systems) (human) (UniProt P31994)", "assay": "competition ELISA, His-FcγRIIb, competitor coated HZ 15C1; 12.35 µg/ml"}, "[16]": {"target": "His-tagged FcγRIIb (R&D Systems) (human) (UniProt P31994)", "assay": "competition ELISA, His-FcγRIIb, competitor coated HZ 15C1; 37.04 µg/ml"}, "[17]": {"target": "His-tagged FcγRIIb (R&D Systems) (human) (UniProt P31994)", "assay": "competition ELISA, His-FcγRIIb, competitor coated HZ 15C1; 111.11 µg/ml"}, "[18]": {"target": "His-tagged FcγRIIb (R&D Systems) (human) (UniProt P31994)", "assay": "competition ELISA, His-FcγRIIb, competitor coated HZ 15C1; 333.33 µg/ml"}, "[19]": {"target": "His-tagged FcγRI (R&D Systems) (human) (UniProt P12314)", "sequence (P12314 16-288 limits assumed)": "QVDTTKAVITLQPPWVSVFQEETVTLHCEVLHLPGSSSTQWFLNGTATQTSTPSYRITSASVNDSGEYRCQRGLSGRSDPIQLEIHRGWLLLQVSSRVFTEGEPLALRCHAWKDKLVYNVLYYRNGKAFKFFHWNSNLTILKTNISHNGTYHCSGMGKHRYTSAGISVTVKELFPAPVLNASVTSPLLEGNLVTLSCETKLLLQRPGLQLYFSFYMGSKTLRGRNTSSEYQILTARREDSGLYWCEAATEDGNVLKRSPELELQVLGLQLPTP", "assay": "competition ELISA, His-FcγRI, competitor coated anti-idiotype antibody; 2 µg/ml"}, "[20]": {"target": "His-tagged FcγRI (R&D Systems) (human) (UniProt P12314)", "assay": "competition ELISA, His-FcγRI, competitor coated anti-idiotype antibody; 10 µg/ml"}, "[21]": {"target": "His-tagged FcγRI (R&D Systems) (human) (UniProt P12314)", "assay": "competition ELISA, His-FcγRI, competitor coated anti-idiotype antibody; 50 µg/ml"}, "[22]": {"target": "His-tagged FcγRI (R&D Systems) (human) (UniProt P12314)", "assay": "competition ELISA, His-FcγRI, competitor coated anti-idiotype antibody; 0.4 µg/ml"}, "[23]": {"target": "His-tagged FcγRI (R&D Systems) (human) (UniProt P12314)", "assay": "competition ELISA, His-FcγRI, competitor coated anti-idiotype antibody; 0.08 µg/ml"}, "[24]": {"target": "His-tagged FcγRI (R&D Systems) (human) (UniProt P12314)", "assay": "competition ELISA, His-FcγRI, competitor coated anti-idiotype antibody; 0.016 µg/ml"}, "[25]": {"target": "His-tagged FcγRI (R&D Systems) (human) (UniProt P12314)", "assay": "competition ELISA, His-FcγRI, competitor coated anti-idiotype antibody; 0.0006 µg/ml"}, "[26]": {"target": "His-tagged FcγRI (R&D Systems) (human) (UniProt P12314)", "assay": "competition ELISA, His-FcγRI, competitor coated anti-idiotype antibody; 0.0032 µg/ml"}, "[27]": {"target": "His-tagged FcγRIIa (FcγRIIaR, R&D Systems) (human) (UniProt P12318)", "sequence (P12318 36-218 H167R limits assumed)": "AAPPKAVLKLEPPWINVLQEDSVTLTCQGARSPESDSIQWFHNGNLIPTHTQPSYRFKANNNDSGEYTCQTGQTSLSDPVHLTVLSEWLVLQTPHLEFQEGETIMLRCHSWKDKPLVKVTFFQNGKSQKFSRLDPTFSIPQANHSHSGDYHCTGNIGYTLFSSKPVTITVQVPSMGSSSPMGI", "assay": "competition ELISA, His-FcγRIIaR, competitor coated HZ 15C1; concentration cell 2.22185"}, "[28]": {"target": "His-tagged FcγRIIa (FcγRIIaR, R&D Systems) (human) (UniProt P12318)", "assay": "competition ELISA, His-FcγRIIaR, competitor coated HZ 15C1; concentration cell 2.69897"}, "[29]": {"target": "His-tagged FcγRIIa (FcγRIIaR, R&D Systems) (human) (UniProt P12318)", "assay": "competition ELISA, His-FcγRIIaR, competitor coated HZ 15C1; concentration cell -0.16368"}, "[30]": {"target": "His-tagged FcγRIIa (FcγRIIaR, R&D Systems) (human) (UniProt P12318)", "assay": "competition ELISA, His-FcγRIIaR, competitor coated HZ 15C1; concentration cell -0.64016"}, "[31]": {"target": "His-tagged FcγRIIa (FcγRIIaR, R&D Systems) (human) (UniProt P12318)", "assay": "competition ELISA, His-FcγRIIaR, competitor coated HZ 15C1; concentration cell 0.313445"}, "[32]": {"target": "His-tagged FcγRIIa (FcγRIIaR, R&D Systems) (human) (UniProt P12318)", "assay": "competition ELISA, His-FcγRIIaR, competitor coated HZ 15C1; concentration cell 0.790496"}, "[33]": {"target": "His-tagged FcγRIIa (FcγRIIaR, R&D Systems) (human) (UniProt P12318)", "assay": "competition ELISA, His-FcγRIIaR, competitor coated HZ 15C1; concentration cell 1.267617"}, "[34]": {"target": "His-tagged FcγRIIa (FcγRIIaR, R&D Systems) (human) (UniProt P12318)", "assay": "competition ELISA, His-FcγRIIaR, competitor coated HZ 15C1; concentration cell 1.744731"}}, "note": "Values joined by “and” are separate entries in the source; they are usually repeats but may differ in a detail not shown here. Equal entries are not always repeated."}
{"substance": "293S anti-CD20 (monoclonal anti-CD20 antibody obinutuzumab, GA101, produced in 293S cells)", "values": [{"measurement": "Kd", "setting": "[1]", "value": 0.258, "unit": "nM"}, {"measurement": "flow cytometry signal (name not given)", "setting": "CD20 on Raji cells [2]", "value": "28.6 and 27.5 and 23.2"}, {"measurement": "flow cytometry signal (name not given)", "setting": "CD20 on Raji cells [3]", "value": "2640 and 2560 and 2580"}, {"measurement": "flow cytometry signal (name not given)", "setting": "CD20 on Raji cells [4]", "value": "2150 and 2180 and 1920"}, {"measurement": "flow cytometry signal (name not given)", "setting": "CD20 on Raji cells [5]", "value": "1500 and 1520 and 1550"}, {"measurement": "flow cytometry signal (name not given)", "setting": "CD20 on Raji cells [6]", "value": "14.1 and 12.3 and 11.3"}, {"measurement": "flow cytometry signal (name not given)", "setting": "CD20 on Raji cells [7]", "value": "673 (2×) and 644"}, {"measurement": "flow cytometry signal (name not given)", "setting": "CD20 on Raji cells [8]", "value": "76.4 and 79.7 and 72.2"}, {"measurement": "flow cytometry signal (name not given)", "setting": "CD20 on Raji cells [9]", "value": "241 and 234 and 210"}, {"measurement": "Kd", "setting": "[10]", "value": 500, "unit": "nM"}, {"measurement": "Kd", "setting": "[11]", "value": 5.6, "unit": "nM"}, {"measurement": "absorbance at 450 nm", "setting": "[12]", "value": "0.641 and 0.629"}, {"measurement": "absorbance at 450 nm", "setting": "[13]", "value": "0.284 and 0.274"}, {"measurement": "absorbance at 450 nm", "setting": "[14]", "value": "2.27 and 1.92"}, {"measurement": "absorbance at 450 nm", "setting": "[15]", "value": "1.99 and 1.87"}, {"measurement": "absorbance at 450 nm", "setting": "[16]", "value": "1.66 and 1.54"}, {"measurement": "absorbance at 450 nm", "setting": "[17]", "value": "1.52 and 1.49"}, {"measurement": "absorbance at 450 nm", "setting": "[18]", "value": "1.06 and 1.1"}, {"measurement": "absorbance at 450 nm", "setting": "[19]", "value": "0.388 and 0.379 and 0.377"}, {"measurement": "absorbance at 450 nm", "setting": "[20]", "value": "0.143 and 0.141"}, {"measurement": "absorbance at 450 nm", "setting": "[21]", "value": "0.085 and 0.091 and 0.084"}, {"measurement": "absorbance at 450 nm", "setting": "[22]", "value": "1.14 and 1.1 (2×)"}, {"measurement": "absorbance at 450 nm", "setting": "[23]", "value": "2.24 and 2.2 and 2.33"}, {"measurement": "absorbance at 450 nm", "setting": "[24]", "value": "3.05 and 3.04 and 3.16"}, {"measurement": "absorbance at 450 nm", "setting": "[25]", "value": "3.43 and 3.6 (2×)"}, {"measurement": "absorbance at 450 nm", "setting": "[26]", "value": "3.39 and 3.4 and 3.44"}, {"measurement": "absorbance at 450 nm", "setting": "[27]", "value": "1.5 and 1.64 and 1.68"}, {"measurement": "absorbance at 450 nm", "setting": "[28]", "value": "0.684 and 0.732 and 0.671"}, {"measurement": "absorbance at 450 nm", "setting": "[29]", "value": "2.69 and 3.02 and 3.1"}, {"measurement": "absorbance at 450 nm", "setting": "[30]", "value": "2.6 and 2.88 and 2.98"}, {"measurement": "absorbance at 450 nm", "setting": "[31]", "value": "2.57 and 2.96 and 2.93"}, {"measurement": "absorbance at 450 nm", "setting": "[32]", "value": "2.56 and 2.91 and 2.98"}, {"measurement": "absorbance at 450 nm", "setting": "[33]", "value": "2.43 and 2.91 and 2.73"}, {"measurement": "absorbance at 450 nm", "setting": "[34]", "value": "2.11 and 2.46 and 2.36"}]}
